Assay [1] concerns the target T1, human IL-1α (human, UniProt P01583 113-271).
T1 sequence (looked up): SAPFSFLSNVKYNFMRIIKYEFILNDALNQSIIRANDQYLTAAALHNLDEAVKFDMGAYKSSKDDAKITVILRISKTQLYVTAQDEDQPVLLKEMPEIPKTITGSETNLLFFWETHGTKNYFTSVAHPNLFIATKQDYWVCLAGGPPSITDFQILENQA
The experiment in a line: cell-based or functional assay.

Assay [2] concerns the target T1, human IL-1α. Nature of the assay: Table 62 IC50; RBA presumed.

B1: ABT1-93 (other)
VH: EVQLLESGGGLVQPGGSLRLSCAASGFTFNEYNMVWVRQAPGKGLEWVSSISGGGGFTYYADSVKGRFTISRDNSKNTLYLQMNSLRAEDTAVYYCAKPLRGFVCSQHCSFDYWGQGTLVTVSS
notes: VH dAb
Consider B1, for which the ND50 in the assay with human IL-1α [1] stood at 5000 nM. In the assay with human IL-1α [2], the IC50 was over 10000 nM.

B2: ABT1-92 (other)
VH: EVQLLESGGGLVQPGGSLRLSCAASGFTFSTYTMTWVRQAPGKGLEWVSTIFPGGSTTYYADSVKGRFTISRDNSKNTLYLQMNSLRAEDTAVYYCAKYVDFVKLSFDYWGQRTLVTVSS
notes: VH dAb
Molecule B2 yielded an ND50 with human IL-1α [1] of over 10000 nM. Also, in the assay with human IL-1α [2], the IC50 was over 10000 nM.

B3: ABT1-141-43 (other)
VL: DIQMTQSPSSLSASVGDRVTITCRASQWIQKQLAWYQQKPGKAPKLLIYSSSYLQSGVPPRFSGSGSGTDFTLTISSLQPEDFATYYCQQHLRVPMTFGQGTKVEIKR
notes: VK dAb
B3: the ND50 in the assay with human IL-1α [1] came out at 5 nM. The molecule also displayed an IC50 in the assay with human IL-1α [2] of 3 nM.

B4: ABT1-141-50 (other)
VL: DIQMTQSPSSLSASVGDRVTITCRASQWIQKQLAWYQQKPGKTPKLLIYSSSYLQSGVPSRFSGSGSGTDFTLTISSLQPEDFATYYCQQHLRVPMTFGQGTNVEIKR
notes: VK dAb
B4 gave an ND50 with human IL-1α [1] of 20 nM. In addition, 10 nM corresponded to half-maximal inhibition with human IL-1α [2] (IC50).

B5: ABT1-141-51 (other)
VL: DIQMTQSPSSLSASVGDRVTITCRASQWIQKQLAWYQQKPGKVPKLLIYSSSYLQSGVPSRFSGSGSGTDFTLTISSLEPEDFATYYCQQHLRVPMTFGQGTKVVIKR
notes: VK dAb
For B5, the ND50 with human IL-1α [1] turned out to be 20 nM. In the assay with human IL-1α [2], this molecule yielded an IC50 of 10 nM.

B6: ABT1-141-47 (other)
VL: DIQMTQSPSSLSASVGDRVTITCRANQWIQKQLAWYQQKPGKAPKLLIYSSSHLQSGVPSRFSGSGSGTDFTLTISSLQPQDFATYYCQQHLRVPMTFGQGTKVEIKR
notes: VK dAb
B6: the ND50 with human IL-1α [1] is 1 nM. In the assay with human IL-1α [2], it took 1 nM to reach half-maximal inhibition (IC50).

B7: ABT1-141-45 (other)
VL: DIQMTQSPSSLSASVGDRVTITCRASQWIQKQLAWYQQKPGKAPKLLIYSSSYLQSGVPSRFSGSGSGTDFTLTISSLQLEDFATYYCQQHLRVPMTLGQGTKVEIKR
notes: VK dAb
For the molecule B7, the ND50 with human IL-1α [1] is 100 nM. This molecule showed an IC50 in the assay with human IL-1α [2] of 100 nM.

B8: ABT1-141-49 (other)
VL: DIQMTQSPSSLSASVGDRVTITCRASQWIQKQLAWYQLKPGKAPKLLIYSSSHSQSGVPSRFSGSGSGTDFTLTISSLQPEDFATYYCQQHLRVPMTFGQGTKVEIKR
notes: VK dAb
The molecule B8 gave an ND50 in the assay with human IL-1α [1] of 5 nM. Besides, the IC50 with human IL-1α [2] was found to be 3 nM.

B9: ABT1-141-48 (other)
VL: DIQMTQSPSSLSASVGDRVTITCRASQWIQKQLAWYQQKPGKAPKLLIFSSSHLQSGVPSRFSGSGSGTDFTLTISSLQPEDFASYYCQQHLRVPMTFGQGTKVEIKR
notes: VK dAb
For the molecule B9, the ND50 with human IL-1α [1] stood at 1 nM. Half-maximal inhibition in the assay with human IL-1α [2] (IC50) was put at 3 nM.

B10: ABT1-122-18 (other)
VL: DIQMTQSPSSLSASVGDRVTITCRASQPIWTELNWYQQKPGKAPKLLVYGSSSLQSGVPSRFSGSGSGTDFTLTISSLQPEDFATYYCQQFAYFPATFGQGTKVEIKR
notes: VK dAb
In turn, B10 had an ND50 in the assay with human IL-1α [1] of 7 nM. Besides, the IC50 in the assay with human IL-1α [2] is 5 nM.

B11: ABT1-122-21 (other)
VL: DIQMTQSPSSLSASVGDRVTITCRASQPIWTELNWYQQKPGKAPKLLIYGSSSLQSGVPTRFSGSGSGTDFTLTISSLQPEDFATYYCQQFAYFPATFGQGTKVEIKR
notes: VK dAb
In the assay with human IL-1α [1], B11 yielded an ND50 of 100 nM. This molecule also came in with an IC50 in the assay with human IL-1α [2] of 80 nM.

B12: ABT1-122-511 (other)
VL: DIQMTQSPSSLSASVGDRVTITCRASQPIWTELNWYQQKPGKAPKLLIYGSSSLQRGVPSRFSGSGSGTDFTLTISSLQPEDFATYYCKQFAYFPATFGQGTKVEIKR
notes: VK dAb
With B12, the ND50 in the assay with human IL-1α [1] was 18 nM. Moreover, half-maximal inhibition with human IL-1α [2] (IC50) required 10 nM.

By IC50 is commonly meant the point on the concentration scale where inhibition reaches its midpoint. The low end stands for inhibition by little substance, the high end for a need for much substance.
